According to US20240226163A1 (Regeneron, published 2024):
Positions count from the first letter of the chain named. Blank lines part the entries; values can stand above or below the binder they belong to.

Legend:
[1] = molecular target: HLA-A*02:01 presenting MAGE-A4 286-294 peptide (…) (human); assay: cell-based or functional assay
[2] = molecular target: HLA-A*02:01 presenting MAGE-A4 286-294 peptide (…) (human); assay: cell-based or functional assay; remark: listed apart in the source
[3] = molecular target: HLA-A*02:01 presenting FN1 2182-2190 peptide (…) (human); assay: cell-based or functional assay
[4] = molecular target: HLA-A*02:01 presenting PLEKHH2 790-798 peptide (…) (human); assay: cell-based or functional assay
[5] = molecular target: HLA-A*02:01 presenting RABGAP1L 408-416 peptide (…) (human); assay: cell-based or functional assay
[6] = molecular target: HLA-A*02:01 presenting SHTN1 198-206 peptide (…) (human); assay: cell-based or functional assay
[7] = molecular target: HLA-A*02:01 presenting NBAS 2063-2071 peptide (…) (human); assay: cell-based or functional assay
[8] = molecular target: HLA-A*02:01 presenting SMIM11A 4-12 peptide (…) (human); assay: cell-based or functional assay
[9] = molecular target: HLA-A*02:01 presenting AOX1 795-803 peptide (…) (human); assay: cell-based or functional assay
[10] = molecular target: HLA-A*02:01 presenting MAGE-A4 286-294 peptide (…) (human); assay: cell-based or functional assay; remark: listed apart in the source
[11] = molecular target: HLA-A*02:01 presenting PSME2 145-153 peptide (…) (human); assay: cell-based or functional assay
[12] = molecular target: HLA-A*02:01 presenting CARD8 170-178 peptide (…) (human); assay: cell-based or functional assay
[13] = molecular target: HLA-A*02:01 presenting MRPL37 334-342 peptide (…) (human); assay: cell-based or functional assay
[14] = molecular target: HLA-A*02:01 presenting TEP1 2156-2164 peptide (…) (human); assay: cell-based or functional assay
[15] = molecular target: T1, HLA-A*02:01 presenting HEATR5A 1925-1933 peptide (…) (human); assay: cell-based or functional assay
[16] = molecular target: HLA-A*02:01 presenting CNOT1 1965-1973 peptide (…) (human); assay: cell-based or functional assay
[17] = molecular target: HLA-A*02:01 presenting PCDHGC3 337-345 peptide (…) (human); assay: cell-based or functional assay
[18] = molecular target: T2, HLA-A*02:01 presenting FN1 2182-2190 peptide (…) (human); assay: flow cytometry, peptide-pulsed T2 cells;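 for S/N ratio: ratio of peak mean fluorescence intensity across a 12-point threefold antibody dilution series to the MFI with secondary antibody only, live-gated cells by flow cytometry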
T2 construct: On peptide-pulsed T2 cells; also called T2 Pulsed FN1 2182-2190

[19] = molecular target: T3, HLA-A*02:01 presenting PLEKHH2 790-798 peptide (…) (human); assay: flow cytometry, peptide-pulsed T2 cells;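 for S/N ratio: ratio of peak mean fluorescence intensity across a 12-point threefold antibody dilution series to the MFI with secondary antibody only, live-gated cells by flow cytometry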
T3 construct: On peptide-pulsed T2 cells; also called T2 Pulsed PLEKHH2 790-798

[20] = molecular target: T4, HLA-A*02:01 presenting RABGAP1L 408-416 peptide (…) (human); assay: flow cytometry, peptide-pulsed T2 cells;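 for S/N ratio: ratio of peak mean fluorescence intensity across a 12-point threefold antibody dilution series to the MFI with secondary antibody only, live-gated cells by flow cytometry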
T4 construct: On peptide-pulsed T2 cells; also called T2 Pulsed RABGAP1L 408-416

[21] = molecular target: T5, HLA-A*02:01 presenting NBAS 2063-2071 peptide (…) (human); assay: flow cytometry, peptide-pulsed T2 cells;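 for S/N ratio: ratio of peak mean fluorescence intensity across a 12-point threefold antibody dilution series to the MFI with secondary antibody only, live-gated cells by flow cytometry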
T5 construct: On peptide-pulsed T2 cells; also called T2 Pulsed NBAS 2063-2071

[22] = molecular target: T6, HLA-A*02:01 presenting SMIM11A 4-12 peptide (…) (human); assay: flow cytometry, peptide-pulsed T2 cells
T6 construct: On peptide-pulsed T2 cells; also called T2 Pulsed SMIM11A 4-12

[23] = molecular target: T7, HLA-A*02:01 presenting PSME2 145-153 peptide (…) (human); assay: flow cytometry, peptide-pulsed T2 cells
T7 construct: On peptide-pulsed T2 cells; also called T2 Pulsed PSME2 145-153

[24] = molecular target: T8, HLA-A*02:01 presenting CARD8 170-178 peptide (…) (human); assay: flow cytometry, peptide-pulsed T2 cells
T8 construct: On peptide-pulsed T2 cells; also called T2 Pulsed CARD8 170-178

[25] = molecular target: T9, HLA-A*02:01 presenting MRPL37 334-342 peptide (…) (human); assay: flow cytometry, peptide-pulsed T2 cells
T9 construct: On peptide-pulsed T2 cells; also called T2 Pulsed MRPL37 334-342

[26] = molecular target: T10, HLA-A*02:01 presenting TEP1 2156-2164 peptide (…) (human); assay: flow cytometry, peptide-pulsed T2 cells
T10 construct: On peptide-pulsed T2 cells; also called T2 Pulsed TEP1 2156-2164

[27] = molecular target: T1, HLA-A*02:01 presenting HEATR5A …; assay: flow cytometry, peptide-pulsed T2 cells
[28] = molecular target: T11, HLA-A*02:01 presenting CNOT1 1965-1973 peptide (…) (human); assay: flow cytometry, peptide-pulsed T2 cells
T11 construct: On peptide-pulsed T2 cells; also called T2 Pulsed CNOT1 1965-1973

[29] = molecular target: T12, HLA-A*02:01 presenting PCDHGC3 337-345 peptide (…) (human); assay: flow cytometry, peptide-pulsed T2 cells
T12 construct: On peptide-pulsed T2 cells; also called T2 Pulsed PCDHGC3 337-345

[30] = molecular target: T2, HLA-A*02:01 presenting FN1 2182-2190 …; assay: flow cytometry, peptide-pulsed T2 cells; remark: listed apart in the source
Method: (§1) Samples were run on an Intellicyt iQue flow cytometer (Intellicyt) and results were analyzed using Forecyte analysis software (Intellicyte) to calculate the mean fluorescent intensity (MFI) after gating for live cells. MFI values were plotted in Graphpad Prism using a four-parameter logistic equation over a 12-point response curve to calculate EC₅₀ values. The secondary antibody alone (i.e. no primary antibody) for each dose-response curve is also included in the analysis as a continuation of the three-fold serial dilution and is represented as the lowest dose. The signal to noise (S/N) was determined by taking the ratio of the highest MFI on the dose response curve to the MFI in the secondary alone wells.

[31] = molecular target: T3, HLA-A*02:01 presenting PLEKHH2 790-798 …; assay: flow cytometry, peptide-pulsed T2 cells; remark: listed apart in the source
Method: as §1

[32] = molecular target: T4, HLA-A*02:01 presenting RABGAP1L 408-416 …; assay: flow cytometry, peptide-pulsed T2 cells; remark: listed apart in the source
Method: as §1

[33] = molecular target: T13, HLA-A*02:01 presenting SHTN1 198-206 peptide (…) (human); assay: flow cytometry, peptide-pulsed T2 cells
T13 construct: On peptide-pulsed T2 cells; also called T2 Pulsed SHTN1 198-206
Method: as §1

[34] = molecular target: T5, HLA-A*02:01 presenting NBAS 2063-2071 …; assay: flow cytometry, peptide-pulsed T2 cells; remark: listed apart in the source
Method: as §1

[35] = molecular target: T6, HLA-A*02:01 presenting SMIM11A 4-12 …; assay: flow cytometry, peptide-pulsed T2 cells; remark: listed apart in the source
Method: as §1

[36] = molecular target: T14, HLA-A*02:01 presenting AOX1 795-803 peptide (…) (human); assay: flow cytometry, peptide-pulsed T2 cells
T14 construct: On peptide-pulsed T2 cells; also called T2 Pulsed AOX1 795-803
Method: as §1

[37] = molecular target: T15, HLA-A*02:01 presenting MAGE-A4 286-294 peptide (…) (human); assay: flow cytometry, peptide-pulsed T2 cells
T15 construct: On peptide-pulsed T2 cells
Method: as §1

[38] = molecular target: T7, HLA-A*02:01 presenting PSME2 145-153 …; assay: flow cytometry, peptide-pulsed T2 cells; remark: listed apart in the source
Method: as §1

[39] = molecular target: T8, HLA-A*02:01 presenting CARD8 170-178 …; assay: flow cytometry, peptide-pulsed T2 cells; remark: listed apart in the source
Method: as §1

[40] = molecular target: T9, HLA-A*02:01 presenting MRPL37 334-342 …; assay: flow cytometry, peptide-pulsed T2 cells; remark: listed apart in the source
Method: as §1

[41] = molecular target: T10, HLA-A*02:01 presenting TEP1 2156-2164 …; assay: flow cytometry, peptide-pulsed T2 cells; remark: listed apart in the source
Method: as §1

[42] = molecular target: T1, HLA-A*02:01 presenting HEATR5A …; assay: flow cytometry, peptide-pulsed T2 cells; remark: listed apart in the source
Method: as §1

[43] = molecular target: T11, HLA-A*02:01 presenting CNOT1 1965-1973 …; assay: flow cytometry, peptide-pulsed T2 cells; remark: listed apart in the source
Method: as §1

[44] = molecular target: T12, HLA-A*02:01 presenting PCDHGC3 337-345 …; assay: flow cytometry, peptide-pulsed T2 cells; remark: listed apart in the source
Method: as §1

[45] = molecular target: T15, HLA-A*02:01 presenting MAGE-A4 286-294 …; assay: flow cytometry, peptide-pulsed T2 cells; remark: listed apart in the source
Method: as §1

EC50, NF-κB luciferase, Jurkat/NF-κB Luc + IM-9 [1]: 0.74 nM
EC50, NF-κB luciferase, Jurkat/NF-κB Luc + U266 [1]: 3.1 nM
Fold Activation, NF-κB luciferase, Jurkat/NF-κB Luc + IM-9 [1]: 41.9 fold
Fold Activation, NF-κB luciferase, Jurkat/NF-κB Luc + U266 [1]: 6.3 fold
EC50, NF-κB luciferase, Jurkat + IM-9, with 2 nM mAb5705 (anti-CD28) [2]: 2.1 nM
EC50, NF-κB luciferase, Jurkat + U266, with 2 nM mAb5705 (anti-CD28) [2]: 6.1 nM
Fold Activation, NF-κB luciferase, Jurkat + IM-9, with 2 nM mAb5705 (anti-CD28) [2]: 28.7 fold
Fold Activation, NF-κB luciferase, Jurkat + U266, with 2 nM mAb5705 (anti-CD28) [2]: 8.6 fold
EC50 (M), Jurkat/NF-κB-Luc reporter with pulsed T2 cells [3]: > 2e-08 M
Fold change, Jurkat/NF-κB-Luc reporter with pulsed T2 cells [3]: 1 fold
EC50 (M), Jurkat/NF-κB-Luc reporter with pulsed T2 cells [4]: > 2e-08 M
Fold change, Jurkat/NF-κB-Luc reporter with pulsed T2 cells [4]: 2.8 fold
EC50 (M), Jurkat/NF-κB-Luc reporter with pulsed T2 cells [5]: > 2e-08 M
Fold change, Jurkat/NF-κB-Luc reporter with pulsed T2 cells [5]: 1 fold
EC50 (M), Jurkat/NF-κB-Luc reporter with pulsed T2 cells [6]: 1.3e-09 M
Fold change, Jurkat/NF-κB-Luc reporter with pulsed T2 cells [6]: 81.1 fold
EC50 (M), Jurkat/NF-κB-Luc reporter with pulsed T2 cells [7]: > 2e-08 M
Fold change, Jurkat/NF-κB-Luc reporter with pulsed T2 cells [7]: 1.3 fold
EC50 (M), Jurkat/NF-κB-Luc reporter with pulsed T2 cells [8]: > 2e-08 M
Fold change, Jurkat/NF-κB-Luc reporter with pulsed T2 cells [8]: 1 fold
EC50 (M), Jurkat/NF-κB-Luc reporter with pulsed T2 cells [9]: 2.1e-11 M
Fold change, Jurkat/NF-κB-Luc reporter with pulsed T2 cells [9]: 36 fold
EC50 (M), Jurkat/NF-κB-Luc reporter with pulsed T2 cells [10]: 2e-12 M
Fold change, Jurkat/NF-κB-Luc reporter with pulsed T2 cells [10]: 78.7 fold
EC50 (M), Jurkat/NF-κB-Luc reporter with pulsed T2 cells [11]: > 2e-08 M
Fold change, Jurkat/NF-κB-Luc reporter with pulsed T2 cells [11]: 1 fold
EC50 (M), Jurkat/NF-κB-Luc reporter with pulsed T2 cells [12]: > 2e-08 M
Fold change, Jurkat/NF-κB-Luc reporter with pulsed T2 cells [12]: 1.2 fold
EC50 (M), Jurkat/NF-κB-Luc reporter with pulsed T2 cells [13]: > 2e-08 M
Fold change, Jurkat/NF-κB-Luc reporter with pulsed T2 cells [13]: 2.4 fold
EC50 (M), Jurkat/NF-κB-Luc reporter with pulsed T2 cells [14]: > 2e-08 M
Fold change, Jurkat/NF-κB-Luc reporter with pulsed T2 cells [14]: 1.2 fold
EC50 (M), Jurkat/NF-κB-Luc reporter with pulsed T2 cells [15]: > 2e-08 M
Fold change, Jurkat/NF-κB-Luc reporter with pulsed T2 cells [15]: 1.2 fold
EC50 (M), Jurkat/NF-κB-Luc reporter with pulsed T2 cells [16]: > 2e-08 M
Fold change, Jurkat/NF-κB-Luc reporter with pulsed T2 cells [16]: 1 fold
EC50 (M), Jurkat/NF-κB-Luc reporter with pulsed T2 cells [17]: > 2e-08 M
Fold change, Jurkat/NF-κB-Luc reporter with pulsed T2 cells [17]: 1 fold
B1: bsAb6054 (bispecific antibody, V domains shown)
VH 1: QVQLVESGGGLVKPGGSLRLSCAASGFTFSEYYLTWIRQAPGKGLDWIAYISSSGYNIYYADSVKDRFTISRDNGKNSLFLQMNNLRAEDTAVYFCAREGVTDGMDVWGQGTTVTVSS
VH 2: EVQLVESGGGLVQPGRSLRLSCAASGFTFADYTMHWVRQAPGKGLEWVSDISWNSGSIAYADSVKGRFTISRDNAKNSLYLQMNSLRTEDTAFYYCAKDSRGYGHYKYLGLDVWGQGTTVTVSS
VL: DIQMTQSPSSLSASVGDRVTITCRASQSIDTFLNWYQQKPGKVPKLLIYAASNLESGVPSRFSGSGSGTVFTLTISRLQPEDFATYYCQQSYSIPPITFGQGTRVEIK

binding result [18]: no binding
binding result [19]: no binding
binding result [20]: no binding
binding result [21]: no binding
binding result [22]: no binding
binding result [23]: no binding
binding result [24]: no binding
binding result [25]: no binding
binding result [26]: no binding
binding result [27]: no binding
binding result [28]: no binding
binding result [29]: no binding
S/N ratio [30]: 1
S/N ratio [31]: 1
S/N ratio [32]: 1
S/N ratio [33]: 5
S/N ratio [34]: 1
S/N ratio [35]: 1
S/N ratio [36]: 131
S/N ratio [37]: 310
S/N ratio [38]: 1
S/N ratio [39]: 1
S/N ratio [40]: 1
S/N ratio [41]: 1
S/N ratio [42]: 1
S/N ratio [43]: 1
S/N ratio [44]: 1
B2: mAbH31339N2 (antibody, human IgG4 S228P, kappa, V domains shown)
VH: B1 VH 1
VL: DIQMTQSPSSLSASVGDRVTITCRASQSIDTFLNWYQQKPGKVPKLLIYAASNLESGVPSRFSGSGSGTVFTLTISRLQPEDFATYYCQQSYSIPPITFGQGTRVEIKR
notes: Fully human form (human constant region); also called parent antibody

EC50 [45]: 1.7 nM
B3: mAbM31339N (antibody, V domains shown)
VH: B1 VH 1 with K76N
VL: B1 VL
notes: Human variable regions with a mouse constant region (detected with anti-mouse Fc secondary; its isotype control is mIgG2a); also called mAb31339N
